Test [1] addresses T1, murine 4-1BB ligand (4-1BB-L), cell surface (murine, UniProt P41274 1-309).
T1 construct: Native on EL4 6.1C10 and EL4 6.1 thymoma cells, the source of the cDNA; Recombinant full length on transfected COS and CV-1 cells; also called mu4-1BB-L; native surface mu4-1BB-L
T1 sequence: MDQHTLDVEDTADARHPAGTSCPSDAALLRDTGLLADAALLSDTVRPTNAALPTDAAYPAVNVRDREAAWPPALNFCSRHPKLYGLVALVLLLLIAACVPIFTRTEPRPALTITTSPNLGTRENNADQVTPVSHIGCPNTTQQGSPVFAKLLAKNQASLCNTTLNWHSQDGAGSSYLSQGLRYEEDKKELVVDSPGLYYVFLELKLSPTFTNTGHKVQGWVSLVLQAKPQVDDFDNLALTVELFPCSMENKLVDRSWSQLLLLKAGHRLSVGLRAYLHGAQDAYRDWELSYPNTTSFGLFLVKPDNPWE
The experiment in a line: Scatchard analysis, 125I-4-1BB/Fc binding to EL4 6.1C10 cells. The protocol: Several cell lines were screened for the ability to bind the radioiodinated murine 4-1BB/Fc fusion protein described in Example 1. Briefly, quantitative binding studies were performed according to standard methodology, and Scatchard plots were derived for the various cell lines. […] The EL4 6.1C10 cell line was derived from a subclone designated EL4 6.1 by using a cell sorter to enrich for a cell population expressing high levels of murine type I Interleukin-1 receptor, as described in U.S. Pat. No. 4,968,607. EL4 6.1 had been derived from a mouse thymoma cell line EL-4 (ATCC TIB39) as described by MacDonald et al. (J. Immunol. 135:3944, 1985) and Lowenthal and MacDonald (J. Exp. Med. 164:1060, 1986).

The target of test [2] is T2, human 4-1BB ligand (4-1BB-L), cell surface (human, UniProt P41273 1-254).
T2 construct: Native on the anti-CD3-stimulated PL1 (PL-1) T cell clone, the source of the cDNA; Recombinant full length on transfected CV-1/EBNA cells; also called hu4-1BB-L; clone 7A
T2 sequence (P41273 whole entry): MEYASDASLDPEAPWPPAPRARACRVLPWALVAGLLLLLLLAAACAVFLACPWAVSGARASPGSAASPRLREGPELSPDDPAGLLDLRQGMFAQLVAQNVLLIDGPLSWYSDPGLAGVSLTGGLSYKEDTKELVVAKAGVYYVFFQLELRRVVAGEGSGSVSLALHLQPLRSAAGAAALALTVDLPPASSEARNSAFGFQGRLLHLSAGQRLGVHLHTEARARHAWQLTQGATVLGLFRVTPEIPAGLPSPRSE
The experiment in a line: slide autoradiography on transfected CV-1 cells.

B1: murine 4-1BB/Fc fusion protein (Fc fusion)
chain: VQNSCDNCQPGTFCRKYNPVCKSCPPSTFSSIGGQPNCNICRVCAGYFRFKKFCSSTHNAECECIEGFHCLGPQCTRCEKDCRPGQELTKQGCKTCSLGTFNDQNGTGVCRPWTNCSLDGRSVLKTGTTEKDVVCGPPVVSFSPSTTISVTPEEPRSCDKTHTCPPCPAPELLGGPSVFLFPPKPKDTLMISRTPEVTCVVVDVSHEDPEVKFNWYVDGVEVHNAKTKPREEQYNSTYRVVSVLTVLHQDWLNGKDYKCKVSNKALPAPMQKTISKAKGQPREPQVYTLPPSRDELTKNQVSLTCLVKGFYPRHIAVEWESNGQPENNYKTTPPVLDSDGSFFLYSKLTVDKSRWQQGNVFSCSVMHEALHNHYTQKSLSLSPGK
modifications: 125I-radioiodinated where used as tracer
notes: The murine IL-7 leader of the vector is cleaved on secretion; Fc is joined through the BglII site; also called mu4-1BB/Fc; soluble murine 4-1BB/Fc
In test [1], B1 showed a Ka of approximately 2e+09 M⁻¹. The binding result in test [2] is recorded as “no binding”.

Source of the values: patent US20060127985A1 (IMMUNEX, published 2006).
